The source of these data is patent US12077763B2, “RNA-based control of powdery mildew” (Greenlight Biosciences, Inc., priority 2021, dated 2024).

B1: GS1817: dsRNA trigger SEQ ID NO 139; gene target Cell division control protein 48 (nucleic acid)
DNA: GCTTCGCGAAAGTAAGGTGCAAGGAAAACATCAAAGAGGGAACCAGTAAGGCCTTCAACAGTATCTGCGATAGGAAGAACTGCGATACGTTTGGCGTATTTTATATCAGGACATGGATGTACTGTAACAATATCACCATGTTTAACCCTAAGGTTGTGTCGGACAACACGATTCATACGAGCACTCCCGTCATCTAAATCATCATCTGCGAGTACAATTAAAACAGTATCCTTTCGCTTCTTCCCCTTAACTAGGACAGTATCTCCACGAAAAAGCTGCAAAGTTTCCATGGTATTATTTGACAGTGCAATAACAGAGTTATCATCGTTGATGGCATCTGTTACAATTAAGGAATTTGGCTTTTTCTTCTTTTTTAAAATAGCAGTCGCAGTAGCATCAATCGTCTTTTGTTCAGCGCCAGAGGCATCCTCAAGTTTAACTGTTTTTTTACGAGTAGCATTGTCTTCAGACATAGTTGTGTAATAAAAGTTAAGAGGGCGTAATTTCCTAGAAAGAATATATCTACTATTAATTTATTGAGATCTTGGAATGAAGGTTTATCCGATAAAATCTGTAAATGATGGAGCTAATCTGAAG
B2: GS3934 (nucleic acid)
sense: UCUUCUUCAGUGGUAUGUGCAAGAGAUUGACGUCUAGAUGAACGUGUUGAUGGUGCAGUUACUACAGCAGUAGCUUCAACCGAUUUUCGACUCACUUUUCGCUUGUUUGAAACAGACGAAACUAAAGAAUUUGUGGAACUAGAUUUAGGUUUACGAGUAGUGGACCGUCCCUUACUUGUAUAGACUCUCUUUUUAAGUGUAGAAUCAUUCAAUGGCUGUAAAAAUGAAACUAAAUCUCCACAAAUAGUAGUAGGUGCAUCUGCUGAUAAUGCUUCAGGUAAAUCUAAUCUAGAUCCAAUUUCUGAUGUACUAAGUGAUAUAUUUGAAGAGGUAAUAUUACUUUGUAUUUCAGGUGUCUUUGAGGUCAUCUUUGAUGAAAUUACCAUUAGUUUUU
antisense: AAAAACUAAUGGUAAUUUCAUCAAAGAUGACCUCAAAGACACCUGAAAUACAAAGUAAUAUUACCUCUUCAAAUAUAUCACUUAGUACAUCAGAAAUUGGAUCUAGAUUAGAUUUACCUGAAGCAUUAUCAGCAGAUGCACCUACUACUAUUUGUGGAGAUUUAGUUUCAUUUUUACAGCCAUUGAAUGAUUCUACACUUAAAAAGAGAGUCUAUACAAGUAAGGGACGGUCCACUACUCGUAAACCUAAAUCUAGUUCCACAAAUUCUUUAGUUUCGUCUGUUUCAAACAAGCGAAAAGUGAGUCGAAAAUCGGUUGAAGCUACUGCUGUAGUAACUGCACCAUCAACACGUUCAUCUAGACGUCAAUCUCUUGCACAUACCACUGAAGAAGA
B3: GS3935 (nucleic acid)
sense: CACCGCAGGAAACAACACGAGUAAAAUCAUUUUCUUCAACAACAUCUUCUGCAGCAAAAAAAUUUUCUCGUGCACUCUUAUGGCGGUCAAUUUGUAGAGAUUGCUCAUCGAAGACAAUCUGACCAUCAACGAUGCGAAUUUUAGGACCAACCGGAGGAGCAGACGGCGGUGCGAUUUGGCUAUUUAAACUUGGCUCAGUCUUUCUACUUUCAUUUAGGGUAUAAUUGUCACCACUUUUUCCAUCUAUAUAAUCUUCAAGUUCAGGGUUAUCUCGCUUCAUCCUAGCUUUGAUAGCAUUUUGUUUCAUUCGUGCAAGUCGUCCCAUUAUCUCAUCGUGGUUUCUAGACUUUUUACCAAUACGAAGAUCAUGACAUAAGUCUUGCAUGGUAAUAACAGAA
antisense: UUCUGUUAUUACCAUGCAAGACUUAUGUCAUGAUCUUCGUAUUGGUAAAAAGUCUAGAAACCACGAUGAGAUAAUGGGACGACUUGCACGAAUGAAACAAAAUGCUAUCAAAGCUAGGAUGAAGCGAGAUAACCCUGAACUUGAAGAUUAUAUAGAUGGAAAAAGUGGUGACAAUUAUACCCUAAAUGAAAGUAGAAAGACUGAGCCAAGUUUAAAUAGCCAAAUCGCACCGCCGUCUGCUCCUCCGGUUGGUCCUAAAAUUCGCAUCGUUGAUGGUCAGAUUGUCUUCGAUGAGCAAUCUCUACAAAUUGACCGCCAUAAGAGUGCACGAGAAAAUUUUUUUGCUGCAGAAGAUGUUGUUGAAGAAAAUGAUUUUACUCGUGUUGUUUCCUGCGGUG
B4: GS3937 (nucleic acid)
sense: CAUCUCAACGACUUUGUAGAAUAAAUCAUAGUGAGAUACAGGACUGUGUAGAAAUGCCUCACCACAACAUAAAGAUAAGGCAAUUAAAUUAACUAGAUUGUCAAUCAAAAUAUCAAUAUUUUUUAAGCCCCUCAAGUCUGAUGUGUAUGUGGUGAGAAACCGAACAAGAGAAAGCAGUGAUCUAUAUAGUUCAGACCAGUGAUAUUUCAAUCGUGUCCGUGACCGAGAUAGGUAUGAUAAUAUACUAUAAAUGAUACCAAUGCAAAGAAUAUAUAAAUCAACAUCCAGUCGUCGUCUUAGAUUGUGAUUGAUUCCAUCAAGCAUCGCAUCAAGAAGAAUAGCAGCAAUCGAUCUAUCUCCAUGAACAUAAGGAAGGUACGGAGAUUUUUGUCGACAUA
antisense: UAUGUCGACAAAAAUCUCCGUACCUUCCUUAUGUUCAUGGAGAUAGAUCGAUUGCUGCUAUUCUUCUUGAUGCGAUGCUUGAUGGAAUCAAUCACAAUCUAAGACGACGACUGGAUGUUGAUUUAUAUAUUCUUUGCAUUGGUAUCAUUUAUAGUAUAUUAUCAUACCUAUCUCGGUCACGGACACGAUUGAAAUAUCACUGGUCUGAACUAUAUAGAUCACUGCUUUCUCUUGUUCGGUUUCUCACCACAUACACAUCAGACUUGAGGGGCUUAAAAAAUAUUGAUAUUUUGAUUGACAAUCUAGUUAAUUUAAUUGCCUUAUCUUUAUGUUGUGGUGAGGCAUUUCUACACAGUCCUGUAUCUCACUAUGAUUUAUUCUACAAAGUCGUUGAGAUG
B5: GS3938 (nucleic acid)
sense: AUCGGCAAAAGUAAUGCUUCAAAAGCUGAUACAAAGACUAUAUGGAGAGGAGCUUUAAAUAUAUUGGAAGACUUAAAAAACGCAGAAAAGGAUUGGAGAUUUGGGAAAACUGAAAUUGUAGGGUUUGACAUUGAGAGAGAGAACCAAAUAGAUUGCCCUCAAAGUGAUAUGGAAAUCUUGCAGCAACAGUCAAGCAACACUGCAAGCUAUGCCAAUAAUUUCACCUCCGACCUUACACCUGAAGGCCGCCCAACAGGAAAAGUUACGAAAGCUCGAUUUCAGUCUGCAGAAAUAGGAAAAUGUACUCAAGUUGGAUGGGGAGUCGUACACCUAUACCGUGAUGAUAACGAUGCUGUUAAUUUUGAUACCCGAACUACUACAUACGAUGGAAA
antisense: UUUCCAUCGUAUGUAGUAGUUCGGGUAUCAAAAUUAACAGCAUCGUUAUCAUCACGGUAUAGGUGUACGACUCCCCAUCCAACUUGAGUACAUUUUCCUAUUUCUGCAGACUGAAAUCGAGCUUUCGUAACUUUUCCUGUUGGGCGGCCUUCAGGUGUAAGGUCGGAGGUGAAAUUAUUGGCAUAGCUUGCAGUGUUGCUUGACUGUUGCUGCAAGAUUUCCAUAUCACUUUGAGGGCAAUCUAUUUGGUUCUCUCUCUCAAUGUCAAACCCUACAAUUUCAGUUUUCCCAAAUCUCCAAUCCUUUUCUGCGUUUUUUAAGUCUUCCAAUAUAUUUAAAGCUCCUCUCCAUAUAGUCUUUGUAUCAGCUUUUGAAGCAUUACUUUUGCCGAU

One data set has as its system E. necator. Description: Leaf disc assay, dry inoculum (settling tower), decrease in disease severity / hyphal growth (Example 2). Particulars: decrease in disease severity (hyphal growth) relative to untreated control; time point 1 (untreated control hyphal growth ≥50%); value ± SE.
As to B1, the “% decrease =/− SE TP1” value stood at 52 ± 2%.
On to B2, for which the “% decrease =/− SE TP1” value came to 31 ± 5%.
Take B3: the “% decrease =/− SE TP1” value was found to be 1 ± 5%.
For B4, the “% decrease =/− SE TP1” value was 12 ± 5%.
The same measure, in the same setting: as for B5, the figure is 3 ± 5%.

Staying with this data set, now noted: decrease in disease severity (hyphal growth) relative to untreated control; time point 2; value ± SE.
For B1, the “% decrease =/− SE TP2” value is on record as 49 ± 6%.
With B2, the “% decrease =/− SE TP2” value was found to be 17 ± 6%.
